Reference: patent US20130209454A1 (CALIFORNIA INSTITUTE OF TECHNOLOGY, published 2013)

How the values were obtained:
Experiment in all cases: cell-based or functional assay
[1] = biological target: HIV-1 Env of strain ZM53M.PB12 (HIV-1)
[2] = biological target: HIV-1 Env of strain CAP210.2.00.E8 (HIV-1)
[3] = biological target: HIV-1 Env of strain T250-4 (HIV-1)
[4] = biological target: HIV-1 strain TRO.11 envelope (gp120) (HIV-1)
[5] = biological target: HIV-1 strain C2101.c01 envelope (gp120) (HIV-1)
[6] = biological target: HIV-1 strain R2184.04 envelope (gp120) (HIV-1)
[7] = biological target: HIV-1 strain 6535.3 envelope (gp120) (HIV-1)
[8] = biological target: HIV-1 strain Ce2060_G9 envelope (gp120) (HIV-1)
[9] = biological target: HIV-1 strain CNE53 envelope (gp120) (HIV-1)
[10] = biological target: HIV-1 strain X1193_c1 envelope (gp120) (HIV-1)
[11] = biological target: HIV-1 strain 6480.v4.c25 envelope (gp120) (HIV-1)
[12] = biological target: HIV-1 strain 3016.v5.c45 envelope (gp120) (HIV-1)
[13] = biological target: HIV-1 strain ZM109F.PB4 envelope (gp120) (HIV-1)
[14] = biological target: HIV-1 strain C1080.c03 envelope (gp120) (HIV-1)
[15] = biological target: HIV-1 strain X1254_c3 envelope (gp120) (HIV-1)
[16] = biological target: HIV-1 strain ZM249M.PL1 envelope (gp120) (HIV-1)
[17] = biological target: HIV-1 strain ZM135M.PL10a envelope (gp120) (HIV-1)
[18] = biological target: HIV-1 strain 211-9 envelope (gp120) (HIV-1)
[19] = biological target: HIV-1 strain CAP45.2.00.G3 envelope (gp120) (HIV-1)
[20] = biological target: HIV-1 strain ZM247v1(Rev-) envelope (gp120) (HIV-1)
[21] = biological target: HIV-1 strain Q23.17 envelope (gp120) (HIV-1)
[22] = biological target: HIV-1 strain 6545.v4.c1 envelope (gp120) (HIV-1)
[23] = biological target: HIV-1 strain 89-F1_2_25 envelope (gp120) (HIV-1)
[24] = biological target: HIV-1 strain Du156.12 envelope (gp120) (HIV-1)
[25] = biological target: HIV-1 strain CNE30 envelope (gp120) (HIV-1)
[26] = biological target: HIV-1 strain Q769.d22 envelope (gp120) (HIV-1)
[27] = biological target: HIV-1 strain ZM233M.PB6 envelope (gp120) (HIV-1)
[28] = biological target: HIV-1 strain 3415.v1.c1 envelope (gp120) (HIV-1)
[29] = biological target: HIV-1 strain P0402_c2_11 envelope (gp120) (HIV-1)
[30] = biological target: HIV-1 strain 3301.v1.c24 envelope (gp120) (HIV-1)
[31] = biological target: HIV-1 strain Ce0682_E4 envelope (gp120) (HIV-1)
[32] = biological target: HIV-1 strain CAP210.2.00.E8 envelope (gp120) (HIV-1)
[33] = biological target: HIV-1 strain T251-18 envelope (gp120) (HIV-1)
[34] = biological target: HIV-1 strain 1056_10_TA11_1826 envelope (gp120) (HIV-1)
[35] = biological target: HIV-1 strain 928-28 envelope (gp120) (HIV-1)
[36] = biological target: HIV-1 strain CNE21 envelope (gp120) (HIV-1)
[37] = biological target: HIV-1 strain CNE20 envelope (gp120) (HIV-1)
[38] = biological target: HIV-1 strain 703357.C02 envelope (gp120) (HIV-1)
[39] = biological target: HIV-1 strain 3718.v3.c11 envelope (gp120) (HIV-1)
[40] = biological target: HIV-1 strain HIV-16845-2.22 envelope (gp120) (HIV-1)
[41] = biological target: HIV-1 strain T278-50 envelope (gp120) (HIV-1)
[42] = biological target: HIV-1 strain AC10.0.29 envelope (gp120) (HIV-1)

B1: NIH45-46 IgG (antibody, V domains shown)
VH: QVRLSQSGGQMKKPGESMRLSCRASGYEFLNCPINWIRLAPGRRPEWMGWLKPRGGAVNYARKFQGRVTMTRDVYSDTAFLELRSLTSDDTAVYFCTRGKYCTARDYYNWDFEHWGRGAPVTVSS
VL: EIVLTQSPATLSLSPGETAIISCRTSQSGSLAWYQQRPGQAPRLVIYSGSTRAAGIPDRFSGSRWGADYNLSISNLESGDFGVYYCQQYEFFGQGTKVQVDI
- neutralization IC50 [1]: 0.175 mg/L
- neutralization IC50 [2]: > 50 mg/L
- neutralization IC50 [3]: > 50 mg/L

B2: NIH45-46 IgG (antibody, V domains shown)
VH: B1 VH
VL: B1 VL
- neutralization IC80 [4]: 7.49 mg/L
- neutralization IC80 [5]: 31.4 mg/L
- neutralization IC80 [6]: 0.127 mg/L
- neutralization IC80 [7]: 0.54 mg/L
- neutralization IC80 [8]: 0.29 mg/L
- neutralization IC80 [9]: 0.039 mg/L
- neutralization IC80 [10]: 0.064 mg/L
- neutralization IC80 [11]: 0.1 mg/L
- neutralization IC80 [12]: > 50 mg/L
- neutralization IC80 [13]: 0.437 mg/L
- neutralization IC80 [14]: 11.6 mg/L
- neutralization IC80 [15]: 0.107 mg/L
- neutralization IC80 [16]: 0.053 mg/L
- neutralization IC80 [17]: 2.79 mg/L
- neutralization IC80 [18]: > 50 mg/L
- neutralization IC80 [19]: > 50 mg/L
- neutralization IC80 [20]: 24.5 mg/L
- neutralization IC80 [21]: 0.5 mg/L
- neutralization IC80 [22]: > 50 mg/L
- neutralization IC80 [23]: > 50 mg/L
- neutralization IC80 [24]: 0.054 mg/L
- neutralization IC80 [25]: 1.07 mg/L
- neutralization IC80 [26]: 0.033 mg/L
- neutralization IC80 [27]: 14.2 mg/L
- neutralization IC80 [28]: 0.086 mg/L
- neutralization IC80 [29]: 0.214 mg/L
- neutralization IC80 [30]: 0.033 mg/L
- neutralization IC80 [31]: 0.155 mg/L
- neutralization IC80 [32]: > 50 mg/L
- neutralization IC80 [33]: 3.68 mg/L
- neutralization IC80 [34]: 0.447 mg/L
- neutralization IC80 [35]: 0.64 mg/L
- neutralization IC80 [36]: 38.1 mg/L
- neutralization IC80 [37]: > 50 mg/L
- neutralization IC80 [38]: > 50 mg/L
- neutralization IC80 [39]: > 50 mg/L
- neutralization IC80 [40]: 22.6 mg/L
- neutralization IC80 [41]: > 50 mg/L
- neutralization IC80 [42]: 1.93 mg/L
